Measurements reported in PMC6816377 (mAbs, 2019).
Numbering of substitutions follows the chain as printed.

B1: HEL23 (antibody, V domains shown)
VH: EVQLQQSGAELMKPGASVKISCKATGYTFSNYWIGWVKQRPGHGLEWIGEILPGSGSTNYNEKFKGKATFTADTSSNTAYMQLSSLTSEDSAVYYCARDSSGGFAYWGQGTLVTVSA
VL: DIVLTQSPAIMSASLGERVTMTCTASSNVSSSYLHWYQQKPGSSPKLWIYSTSNLASGVPARFSGSGSGTSYSLTISSMEAEDAATYYCHQYHRSPPTFGAGTKLEIK
B2: HEL23 variant 1 (antibody, V domains shown)
VH: B1 VH with Q5R, S91G, A105V, Q109R
VL: B1 VL
B3: HEL23 variant 4 (antibody, V domains shown)
VH: B1 VH with L4V, M12K, G54S, G56S, T111S
VL: B1 VL
B4: HEL23 variant 5 (antibody, V domains shown)
VH: B1 VH with G54S, T78I
VL: B1 VL
B5: HEL23 variant 3 (antibody, V domains shown)
VH: B1 VH with C22S, S84N
VL: B1 VL

Key:
[1] = target: T1, hen egg lysozyme (Gallus gallus (hen egg white), UniProt P00698); experiment: flow cytometry on cells
T1 sequence (P00698 19-147): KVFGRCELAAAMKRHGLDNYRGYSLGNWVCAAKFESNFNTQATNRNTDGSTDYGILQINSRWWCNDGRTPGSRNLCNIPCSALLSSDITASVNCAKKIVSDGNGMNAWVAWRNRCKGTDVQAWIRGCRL

[2] = target: T1, hen egg lysozyme; experiment: BLI
[3] = target: T1, hen egg lysozyme; experiment: ELISA

Binder | binding result [3] | other results
B1 |  | binding result [1]: binds
B2 |  | binding result [2]: binds
B3 | binds | 
B4 | binds | 
B5 | binds | 
